# Results reported in the supplement of paper PMC12042874.
# ± gives the uncertainty stated by the source.
# Test: amyloid nucleation score (Sup35N fusion, yeast selection) (log enrichment); library NNK2; higher = more nucleation; inactive = no reads after selection
# How it was run: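 For the nucleation score, DiMSum gave the log enrichment of output over input reads, centred on the mode score of non-aggregating sequences. Psi-negative yeast expressing Sup35N fused to peptides of 20 random codons were induced with 100 μM copper sulfate for 24 hours and grown 7 days at 30°C on medium lacking adenine and uracil. Input and output plasmid inserts were Illumina-sequenced, and sequences with under 100 input reads were excluded.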
row,Substance,amyloid nucleation score
1,RYHVRMKISCRF,2.74 ± 0.11
2,SCFIFSCYDTSLQMLVFAVG,-0.591 ± 0.63
3,PNPLSMLRLYRNKASVFSIK,0.745 ± 0.41
4,ISDHTTNKDQRFSYS,-0.455 ± 1.1
5,IWRAQTSWSSSMFTWAVGLR,1.4 ± 0.33
6,SMGFSRHRFKG,0.164 ± 0.8
7,VFAWRN,-0.347 ± 1.1
8,HWRGFYS,-0.388 ± 1.1
9,YVVKIREIMVCSLVLDLRQR,2.57 ± 0.069
10,NTFDVVMT,0.411 ± 0.51
11,SCWYKRWTPCSRDYDSFYIA,2.72 ± 0.09
12,KHIWAMNGCYSLLLKNPALV,-0.649 ± 1.1
13,SGTSLRVTSNRRFDMYGVYG,-0.766 ± 0.5
14,IVMYRLRLLQDATN,0.259 ± 0.65
15,INMCNP,2.89 ± 0.072
16,TYRIQRIFLPLYRWLVLLLS,-0.285 ± 0.76
17,FSPKKFK,-0.532 ± 1
18,LGISLPIEVLSFSLSMARCI,-0.408 ± 0.45
19,SHTVTDGWCVV,1.52 ± 0.21
20,ECVRCC,-1.11 ± 0.76
21,GVAYRWPFGQK,0.155 ± 1.1
22,LVGFALGSDTLISRY,-0.221 ± 1.1
23,KPFHLIKTWKQLLLEKGGPN,-0.157 ± 0.28
24,GRLSWFS,-0.624 ± 0.49
25,LALWCTWEVRLIDESAMTTF,0.467 ± 0.29

row,Substance,amyloid nucleation score
1,SCLSSFELVL,-0.694 ± 1.1
2,PTCSNHCFFYLNHTN,3.66 ± 0.12
3,YIHVYVLMLGLNRQF,4.74 ± 0.071
4,IVTLVSDAYSKLTRLMNSVS,-0.561 ± 0.23
5,YKVCRVFLVIYIHDFEWVVD,inactive
6,RGMSAKSTERYVLGIGRAVS,4.18 ± 0.11
7,SACWEGGSSFVIKGKTRLFG,1.94 ± 0.19
8,KLALVDIGLVPVIAIMCWMS,0.877 ± 0.14
9,RMSEYFDGLHRWFSGCWCAL,0.256 ± 0.65
10,KNYHCTLSWLWFMACFSGIP,2.61 ± 0.15
11,QHRFFQYYRS,-1.5 ± 0.64
12,LGSGVILLVY,-0.643 ± 1
13,AGYLNRNHLLRMLYWCSCFG,inactive
14,DIYLLKIDRSGKCWPTTVDL,-0.067 ± 0.41
15,DHFYWSNLGG,inactive
16,SLVYL,1.1 ± 0.13
17,VSCLTAPILSMENPSEEYVG,1.55 ± 0.35
18,YYEYQVIYSVCSMRI,-0.31 ± 1
19,EGVKF,0.436 ± 0.8
20,DKGWLANDNLDKDLHQIPYA,0.515 ± 0.35
21,SVYGKFLYF,2.23 ± 0.11
22,IGRRLVDFWDVGPFCSHVII,-1.48 ± 1.1
23,FWDSIKIHSKSLLSCIDGPW,2.35 ± 0.066
24,FGGRFIQSRVSMR,inactive
25,TSIYLVLGYIFESATRLF,0.144 ± 0.79

row,Substance,amyloid nucleation score
1,LGMFSYIS,0.105 ± 0.44
2,NCESQVVDMYITIRLFVLWV,0.202 ± 0.18
3,PYYCMSYLAPWCPDELRAS,inactive
4,IEHIRFTSSSAVVRRCGNC,6.11 ± 0.066
5,CWFYVMGLWHVLLLCWS,inactive
6,VSFRHQCWNACNSDSVGEEI,0.892 ± 0.48
7,IHVICCAGRVARCFVSEIMG,0.674 ± 0.48
8,GRVWVW,0.718 ± 0.57
9,HGRKNFSVGVVVVLWLRLFV,5.63 ± 0.081
10,FYSAVYMLFIVMWFGY,inactive
11,TCGLSIVDYWSLR,-0.99 ± 1.1
12,ILSCWSCRGRINTY,1.9 ± 0.14
13,FIEVTSRNT,-0.994 ± 0.42
14,ESYRPPVKTFGLGIRMGLFV,-0.975 ± 1.1
15,PISLRGLYCVKDLMDKPM,0.113 ± 0.61
16,RVSGNCIYTKWCVFPVGNLL,-1.12 ± 0.76
17,YRLPRLRMLTLFLCFTNVGK,1.37 ± 0.2
18,LDMRSRLHFDDCTRRGYLGM,-0.166 ± 0.65
19,YARANYYALLWPRLTFPMIL,-1.41 ± 0.78
20,YNPVPFL,-0.788 ± 0.39
21,CSSFTQGCKCSF,-0.139 ± 0.37
22,SKRRSSLQPS,-0.151 ± 0.31
23,FYMNPRRYRGLVIMFFSSPV,-1.27 ± 1.1
24,FPDSSEISHGAVHLLQVCPL,-0.313 ± 0.33
25,FTSVRMCCILTLGISGSVRA,inactive

row,Substance,amyloid nucleation score
1,VVCLPVISLCWIFLHIIF,inactive
2,FIMEAFFEPFNKGYRYRMMS,0.833 ± 0.18
3,MYYYSFSDTTLWEISPQLAT,-0.582 ± 1.1
4,MCEFLIYWIYNFSFVSSPRL,0.157 ± 1
5,IMELSFLSWVLRSKMDFHAE,5.34 ± 0.066
6,FGFKCSAVITICPGPSRLGS,5.12 ± 0.081
7,GLPFLVESMSCPCDLDTVGW,2.27 ± 0.23
8,TGWCGL,5.54 ± 0.066
9,RFQVSLEILSIYRCRTTTD,3.27 ± 0.15
10,NFKWVVAVMG,0.789 ± 0.2
11,CIRMNRISLGNSICWCAPNM,7.922 ± 0.047
12,ACLLIFLSTA,2.31 ± 0.078
13,LRIVICT,-1.63 ± 0.62
14,INIHIFGWLIGLRGCM,-0.504 ± 1.1
15,ILWNLNY,-0.596 ± 0.4
16,ALSSKMMGYDRF,-0.494 ± 0.64
17,QGILGSFIGKRCGFTRLKTL,inactive
18,TMKHPDMS,-0.152 ± 0.55
19,VMWKEFLPGILCGCCKLGFS,-0.481 ± 0.33
20,SDVELWRYG,2.55 ± 0.065
21,LVANSSVHVNSSTSNNRLAV,-0.917 ± 0.56
22,RLYTREQLRTLWLSYMFLRK,-0.357 ± 0.29
23,RSSRYLLPFNGGTPFYDSR,-0.284 ± 1.1
24,NLDDEL,0.422 ± 0.43
25,DEMVDAFYYSAM,0.35 ± 0.8

row,Substance,amyloid nucleation score
1,DLRRDQRATTERGRVPVVKH,4.817 ± 0.045
2,LTMVWNKSFGEIHRLWVGNS,-1.58 ± 0.62
3,DLKRTFR,-0.487 ± 0.79
4,KNLLVHNFACGR,0.462 ± 0.74
5,FQGCIPFLFVNSWFSYSFVK,-1.36 ± 1.1
6,TSSSYTWLIKSMRVFTNYNV,-1.32 ± 0.38
7,NVVSLILVVLRASCTYLYNG,inactive
8,FWSGVTFSVLSYMSVSNMVP,-0.979 ± 0.55
9,PLYLYA,4.28 ± 0.078
10,RHSKFRVITENMIDPFQRS,0.249 ± 0.64
11,MTVASCSTGCHD,0.084 ± 0.54
12,KYLGLGAFCVTVDYQRVWDA,0.879 ± 0.58
13,CIRVGSQNVMFPIDSEPSDL,0.482 ± 0.46
14,PFMCRLIYSELNDYIIELDE,-0.081 ± 0.5
15,GDDLPWWCISIWFFLSWLEN,inactive
16,WLIRL,inactive
17,DLYVLSWLYLGGEPNCVRF,0.446 ± 0.26
18,CTLLTNITLFRGLHGTKFFC,2.43 ± 0.14
19,VGTLNGFRRFGRSGKFNILE,-0.195 ± 0.27
20,ANNFCRINESDWVRSVILPS,0.042 ± 1.1
21,NMMWCVKHYKSVRSLLGCLV,-0.891 ± 0.54
22,LTVMSFTNNLHYLF,-0.552 ± 0.48
23,STFDPCLRHPLIMCFYSVCA,0.014 ± 0.46
24,KGCVLCNIFCRSKGVVGSTL,8.737 ± 0.035
25,NRGSAPYYVTICYCNLC,8.578 ± 0.035

row,Substance,amyloid nucleation score
1,VLFCT,-1.29 ± 0.61
2,TCLYP,-0.707 ± 0.55
3,INGCNQCALP,-0.408 ± 1
4,KFGVGSLLTSLGYATRSCYL,-0.771 ± 0.25
5,VPFYVFSVIGMIYMHGWVEW,-0.748 ± 0.56
6,ICCWEMCLGSFFR,0.287 ± 0.65
7,PVKIGMFPVGRWQFKDQFGF,-0.704 ± 0.44
8,TSVGYMMLSNW,4.88 ± 0.095
9,SVVFKNSVWYSITNHNIMSL,1.57 ± 0.29
10,QELYSDLPRPSGSPLQLWAK,-0.246 ± 0.76
11,VPYGRAGFVTTYAVCCYNCK,-0.47 ± 1.1
12,ACNNRMISGIRTTDCYIYRP,-0.261 ± 0.33
13,FQMVLYRYYTTGISGKLLQD,inactive
14,SKRVDIKHSMRARDGLNRFW,-0.226 ± 1.1
15,CAVVKAILSCMFTLSSSCLH,0.441 ± 0.49
16,FGWVVSSVSFKVMMAV,-0.084 ± 0.44
17,MKGAKGDNFCIMV,inactive
18,TWGYGRDVCVRSERSGWYLS,0.859 ± 0.28
19,YWWGLENFTYCEDDAVSHKS,0.294 ± 0.8
20,TLNNCRPFCLLELANLINRD,3.4 ± 0.058
21,APENGFRFWLVNHNAVHMIL,-0.21 ± 0.79
22,TMIYMHRLLLNVVDVCCHWF,0.261 ± 0.74
23,LNFDLLTMFWT,0.182 ± 0.79
24,GQNLDRSVKGWCTASHTGSF,0.554 ± 0.54
25,GDGLEMCWVA,-0.226 ± 0.37

row,Substance,amyloid nucleation score
1,SCQENICENWFWLLHD,-0.321 ± 0.45
2,MVLDIFAS,1.19 ± 0.44
3,ASVLWHFLPSGGARFVCSER,0.538 ± 0.5
4,ILWKMTFKAPIAKEFPAKWL,0.065 ± 0.56
5,RCWWAYQ,1.11 ± 0.12
6,SEVILYGMHSNINLPI,0.063 ± 1.1
7,GLTFRFGTGTSLSRRFDATV,6.507 ± 0.045
8,GDAIANCIVVWYGHAMPARY,2.06 ± 0.12
9,DTPITDCELPAYFQVITNWL,0.007 ± 0.76
10,VAYVKACRTSGVHQLSTDHV,1.67 ± 0.34
11,IRPSWLKENLRMVYWYKDYP,2.53 ± 0.077
12,RIRVIIVPALVLA,inactive
13,NFCLVNLEWMRWSNLTDGLQ,5.34 ± 0.055
14,TAWSMNVHVSANVSTCRPLR,1.87 ± 0.2
15,SGGSDMQHS,1.61 ± 0.3
16,YSRGGKMVAARGCGSAEPDA,-0.64 ± 0.76
17,YVMREDLGPGSQADPTSGRS,0.912 ± 0.27
18,SLCREVPFLWDFCL,0.163 ± 0.63
19,CFKMIFDQGSPKMRMHHIGV,0.234 ± 0.54
20,GYRSHSDNNICNVSGSHTYI,3.96 ± 0.065
21,RMDKAGRSGV,0.656 ± 0.26
22,SELIGFLGGNQIELA,0.027 ± 0.34
23,TLDGLDS,-0.283 ± 0.25
24,KIYERPAITDFGSQVD,-0.505 ± 0.21
